Test results from publication PMC4024195.

Assays:
glucokinase-YN155 [1] = molecular target: glucokinase-YN155 (UniProt P17712); experiment: BiFC assay; details: COS1 cells, 25 mM glucose, without dibutyryl cAMP; parent: est. 36; read off a plot
glucokinase-YN155 [2] = molecular target: glucokinase-YN155 (UniProt P17712); experiment: BiFC assay; details: COS1 cells, 25 mM glucose, read off a plot

UniProt P17712, sequence (P17712 whole entry): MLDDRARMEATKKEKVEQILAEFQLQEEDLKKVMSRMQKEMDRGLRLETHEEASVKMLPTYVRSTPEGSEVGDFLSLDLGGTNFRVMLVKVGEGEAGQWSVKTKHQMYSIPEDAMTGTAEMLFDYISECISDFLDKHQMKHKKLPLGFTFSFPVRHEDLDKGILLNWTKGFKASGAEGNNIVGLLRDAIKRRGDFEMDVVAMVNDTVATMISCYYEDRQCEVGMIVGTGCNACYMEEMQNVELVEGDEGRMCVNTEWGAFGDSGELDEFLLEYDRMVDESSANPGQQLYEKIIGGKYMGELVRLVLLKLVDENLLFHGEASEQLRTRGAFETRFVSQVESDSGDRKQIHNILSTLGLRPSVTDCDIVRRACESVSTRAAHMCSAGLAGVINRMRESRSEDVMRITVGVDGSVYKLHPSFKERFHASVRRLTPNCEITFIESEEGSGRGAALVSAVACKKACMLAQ

| response (% transfected cells) (glucokinase-YN155 [1]) | response (% transfected cells) (glucokinase-YN155 [2]; 50 μM dibutyryl cAMP for 1 h, parent: est. 28) | response (% transfected cells) (glucokinase-YN155 [2]; without dibutyryl cAMP, parent: est. 36) | Substance |
| --- | --- | --- | --- |
| 39 | 33 | 39 | wild-type PFK2/FBPase2-YC155 (from UniProt P07953) S32A |
| 39 |  |  | wild-type PFK2/FBPase2-YC155 (from UniProt P07953) S32D |
